The target of data set [1] is T1, Reb1 (Saccharomyces cerevisiae) (UniProt P21538).
T1 sequence: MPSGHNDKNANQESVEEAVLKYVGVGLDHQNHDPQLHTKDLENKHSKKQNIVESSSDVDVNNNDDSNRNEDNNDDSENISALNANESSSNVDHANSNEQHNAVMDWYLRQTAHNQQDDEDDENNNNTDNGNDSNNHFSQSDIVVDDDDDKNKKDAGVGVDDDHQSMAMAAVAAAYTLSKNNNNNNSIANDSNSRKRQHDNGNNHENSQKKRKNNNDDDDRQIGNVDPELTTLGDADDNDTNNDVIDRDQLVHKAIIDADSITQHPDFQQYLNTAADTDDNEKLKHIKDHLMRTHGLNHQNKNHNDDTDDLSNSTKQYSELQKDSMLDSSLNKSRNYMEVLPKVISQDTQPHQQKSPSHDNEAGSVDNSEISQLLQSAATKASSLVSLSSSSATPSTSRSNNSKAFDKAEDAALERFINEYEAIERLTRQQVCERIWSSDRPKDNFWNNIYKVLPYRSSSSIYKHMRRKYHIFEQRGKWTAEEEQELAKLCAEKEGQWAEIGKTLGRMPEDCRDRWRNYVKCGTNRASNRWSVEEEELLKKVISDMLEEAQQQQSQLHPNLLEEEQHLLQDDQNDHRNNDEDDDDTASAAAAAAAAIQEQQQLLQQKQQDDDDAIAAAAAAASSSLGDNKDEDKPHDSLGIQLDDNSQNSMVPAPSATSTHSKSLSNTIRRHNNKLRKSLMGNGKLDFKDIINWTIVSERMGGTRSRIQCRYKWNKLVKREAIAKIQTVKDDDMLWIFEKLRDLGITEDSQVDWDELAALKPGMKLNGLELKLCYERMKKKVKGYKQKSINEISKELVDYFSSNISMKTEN
Briefly: ensemble FRET.

In data set [2] the target is Cbf1 (Saccharomyces cerevisiae) (UniProt P17106). Briefly: EMSA.
UniProt P17106, sequence (P17106 whole entry): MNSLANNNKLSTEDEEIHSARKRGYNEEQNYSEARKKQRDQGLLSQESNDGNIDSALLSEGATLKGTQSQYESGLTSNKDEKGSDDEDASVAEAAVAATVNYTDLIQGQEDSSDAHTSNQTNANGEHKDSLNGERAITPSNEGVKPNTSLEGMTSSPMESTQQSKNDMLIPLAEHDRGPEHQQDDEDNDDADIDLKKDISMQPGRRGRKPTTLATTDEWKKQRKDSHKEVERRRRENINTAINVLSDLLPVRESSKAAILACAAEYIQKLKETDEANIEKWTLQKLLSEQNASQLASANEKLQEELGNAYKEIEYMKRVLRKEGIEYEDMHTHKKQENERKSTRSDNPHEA
For data set [3] the target is unchanged. Briefly: ensemble FRET.

Results on three substances are retold here after paper PMC11760725.

In data set [1], “GCTTTGACCGGGTAACACGAACAGAAAGATGGAGGAGACCAATCAGTCAGTGAATCAGATGCTGATGAAGGCTGGGAAGATATTCCTGTCTACGTTAAAGCCTTTGCAGAGTTTGAATCAAAGAAAAGATTACAAAAAATTCGCCGACAGGAAGAAATAAAAAAGAGGACAGCTTTGGTTTGAAGCAAATATATATTATTGAAAAGC (double strand) [YNN1 Reb1p8 Cy3-proximal 207 bp nucleosome]” had a K half of 1.5 nM. In data set [1], “601 Reb1p8 Cy3-proximal 207 bp nucleosome” showed a K half of 0.75 nM. As to “GCTTTGAGGTCACGTGACCAACAGAAAGATGGAGGAGACCAATCAGTCAGTGAATCAGATGCTGATGAAGGCTGGGAAGATATTCCTGTCTACGTTAAAGCCTTTGCAGAGTTTGAATCAAAGAAAAGATTACAAAAAATTCGCCGACAGGAAGAAATAAAAAAGAGGACAGCTTTGGTTTGAAGCAAATATATATTATTGAAAAGC (double strand) [YNN1 Cbf1p8 nucleosome]”, the K half in data set [2] came to 0.8 nM; in data set [3], 1.5 nM.
